Experimental data published in US20260139035A1 (NATIONAL UNIVERSITY CORPORATION KUMAMOTO UNIVERSITY, published 2026).

Key:
Assay in all cases: cell-based or functional assay
[1] = target: spike protein of SARS-CoV-2 Omicron BA.4/5 (SARS-CoV-2)
[2] = target: spike protein of SARS-CoV-2 Lambda strain (C.37) (SARS-CoV-2)
[3] = target: spike protein of SARS-CoV-2 Omicron BA.2.12.1 (SARS-CoV-2)
[4] = target: spike protein of SARS-CoV-2 prototype (614G) (SARS-CoV-2, UniProt P0DTC2 14-1273)
[5] = target: spike protein of SARS-CoV-2 Omicron BA.1.1 (SARS-CoV-2)
[6] = target: spike protein of SARS-CoV-2 Omicron BA.2 (SARS-CoV-2)
[7] = target: spike protein of SARS-CoV-2 Omicron BA.1 (SARS-CoV-2)
[8] = target: spike protein of SARS-CoV-2 Mu strain (B.1.621) (SARS-CoV-2)
[9] = target: spike protein of SARS-CoV-2 Gamma strain (P.1) (SARS-CoV-2)
[10] = target: spike protein of SARS-CoV-2 Beta strain (B.1.351) (SARS-CoV-2)
[11] = target: spike protein of SARS-CoV-2 Delta strain (B.1.617.2) (SARS-CoV-2)
[12] = target: spike protein of SARS-CoV-2 Kappa strain (B.1.617.1) (SARS-CoV-2)
[13] = target: spike protein of SARS-CoV-2 Alpha strain (B.1.1.7) (SARS-CoV-2)
[14] = target: spike protein of SARS-CoV-2 Omicron BA.3 (SARS-CoV-2)

B1: 4-66 antibody (antibody, V domains shown)
VH: EVQLVESGGGLVQPGGSLRLSCAASGIIVSRNYMTWVRQAPGKGLEWVSVIYSGGTTYYADSVKGRFTTSRDDSKNTLYLQMNSLRGDDTAVYYCARDPPHRRGSYWGQGTLVTVSS
VL: DILMTQSPSSLSASVGDRVTITCQASQDINKYLNWYQQKPGKAPKLLIYDASNLETGVPSRFSGSGSGTDFSFTISSLQPEDVATYYCQQSDNLPPTFGQGTNVEIK
[1]
  IC50, pseudovirus neutralization: < 0.21 µg/mL
[2]
  IC50, pseudovirus neutralization: < 0.21 µg/mL
[3]
  IC50, pseudovirus neutralization: < 0.21 µg/mL
[4]
  IC50, pseudovirus neutralization: < 0.21 µg/mL
[5]
  IC50, pseudovirus neutralization: < 0.21 µg/mL
[6]
  IC50, pseudovirus neutralization: < 0.21 µg/mL
[7]
  IC50, pseudovirus neutralization: < 0.21 µg/mL
[8]
  IC50, pseudovirus neutralization: < 0.21 µg/mL
[9]
  IC50, pseudovirus neutralization: < 0.21 µg/mL
[10]
  IC50, pseudovirus neutralization: < 0.21 µg/mL
[11]
  IC50, pseudovirus neutralization: < 0.21 µg/mL
[12]
  IC50, pseudovirus neutralization: < 0.21 µg/mL
[13]
  IC50, pseudovirus neutralization: < 0.21 µg/mL
[14]
  IC50, pseudovirus neutralization: < 0.21 µg/mL

B2: 1-58 antibody (antibody, V domains shown)
VH: QVQLVQSGAEVKKPGASVRVSCKASGYSFTASYMHWVRQAPGQGLEWMAIINPGDDNTSYAQKFQGRVTLTRDTSTTTVYMELRSLRSEDTAVYYCTRSTRDYVWGNYRYTPGYYLDYWGQGTLVTVSS
VL: DIRMTQSPSSLSASVGDRVTITCRASQTISNYLNWYQQKPGKAPKLLIYAASSLQSGVPSRFSGSGSGTDFTLTISSLQPEDFATYYCQQGYITPITFGQGTRLEIK
[1]
  IC50, pseudovirus neutralization: < 0.087 µg/mL
[2]
  IC50, pseudovirus neutralization: < 0.087 µg/mL
[3]
  IC50, pseudovirus neutralization: < 0.087 µg/mL
[4]
  IC50, pseudovirus neutralization: < 0.087 µg/mL
[5]
  IC50, pseudovirus neutralization: < 0.087 µg/mL
[6]
  IC50, pseudovirus neutralization: < 0.087 µg/mL
[7]
  IC50, pseudovirus neutralization: < 0.087 µg/mL
[8]
  IC50, pseudovirus neutralization: < 0.087 µg/mL
[9]
  IC50, pseudovirus neutralization: < 0.087 µg/mL
[10]
  IC50, pseudovirus neutralization: < 0.087 µg/mL
[11]
  IC50, pseudovirus neutralization: < 0.087 µg/mL
[12]
  IC50, pseudovirus neutralization: < 0.087 µg/mL
[13]
  IC50, pseudovirus neutralization: < 0.087 µg/mL
[14]
  IC50, pseudovirus neutralization: < 0.087 µg/mL

B3: 1-44 antibody (antibody, V domains shown)
VH: EVQLVESGGGVVQPGSSLRLSCAASGFTFRSHAMHWVRQAPGKGLEGVAVIWYDGSNKYYADSVKGRFTISRDNSKNTLYLQMNSLRAEDTAVYYCAREGIAVPGNGADAFDIWGQGTMVTVSS
VL: DIQMTQSPSSLSASVGDRVTITCRASQSIGNFLNWYQQKPGKAPKLLIYAASSLQSGVPSRFSGSGSGTDFTLTISSLQPEDFATYYCQQTYSTPYTFGQGTKLEIK
[2]
  IC50, pseudovirus neutralization: < 0.47 µg/mL
[3]
  IC50, pseudovirus neutralization: < 0.47 µg/mL
[4]
  IC50, pseudovirus neutralization: < 0.47 µg/mL
[5]
  IC50, pseudovirus neutralization: < 0.47 µg/mL
[6]
  IC50, pseudovirus neutralization: < 0.47 µg/mL
[7]
  IC50, pseudovirus neutralization: < 0.47 µg/mL
[9]
  IC50, pseudovirus neutralization: < 0.47 µg/mL
[10]
  IC50, pseudovirus neutralization: < 0.47 µg/mL
[12]
  IC50, pseudovirus neutralization: < 0.47 µg/mL
[13]
  IC50, pseudovirus neutralization: < 0.47 µg/mL
[14]
  IC50, pseudovirus neutralization: < 0.47 µg/mL
